Target: T1, fibrinogen (Homo sapiens, UniProt P02671+P02675+P02679)
T1 sequence (P02671 20-629 limits assumed): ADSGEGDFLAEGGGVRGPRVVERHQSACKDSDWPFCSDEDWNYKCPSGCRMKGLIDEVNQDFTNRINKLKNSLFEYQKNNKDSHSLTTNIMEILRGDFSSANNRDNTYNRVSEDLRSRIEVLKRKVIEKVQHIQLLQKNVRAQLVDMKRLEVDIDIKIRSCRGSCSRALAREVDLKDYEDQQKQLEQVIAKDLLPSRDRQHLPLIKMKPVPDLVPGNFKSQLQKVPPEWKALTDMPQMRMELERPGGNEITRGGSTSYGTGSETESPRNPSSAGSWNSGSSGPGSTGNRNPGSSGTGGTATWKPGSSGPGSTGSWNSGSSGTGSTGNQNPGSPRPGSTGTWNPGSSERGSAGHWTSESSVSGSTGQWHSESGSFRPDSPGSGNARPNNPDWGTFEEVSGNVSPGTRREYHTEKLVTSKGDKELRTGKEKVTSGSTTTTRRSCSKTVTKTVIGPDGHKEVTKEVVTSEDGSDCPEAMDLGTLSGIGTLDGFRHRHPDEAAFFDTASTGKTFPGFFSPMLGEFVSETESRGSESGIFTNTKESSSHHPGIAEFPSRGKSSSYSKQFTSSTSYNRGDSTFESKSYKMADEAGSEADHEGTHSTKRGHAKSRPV
T1 sequence (P02675 31-491): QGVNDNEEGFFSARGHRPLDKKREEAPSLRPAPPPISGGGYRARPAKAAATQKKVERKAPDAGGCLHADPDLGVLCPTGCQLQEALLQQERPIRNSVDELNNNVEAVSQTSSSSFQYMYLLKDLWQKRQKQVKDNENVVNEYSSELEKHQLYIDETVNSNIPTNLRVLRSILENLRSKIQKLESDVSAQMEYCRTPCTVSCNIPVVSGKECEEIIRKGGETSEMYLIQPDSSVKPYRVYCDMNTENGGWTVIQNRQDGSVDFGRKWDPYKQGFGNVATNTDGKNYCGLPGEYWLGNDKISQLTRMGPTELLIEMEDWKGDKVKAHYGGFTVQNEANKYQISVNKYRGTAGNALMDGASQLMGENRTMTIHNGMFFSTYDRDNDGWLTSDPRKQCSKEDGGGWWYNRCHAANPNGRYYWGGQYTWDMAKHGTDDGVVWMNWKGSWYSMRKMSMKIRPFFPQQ
T1 sequence (P02679 27-453): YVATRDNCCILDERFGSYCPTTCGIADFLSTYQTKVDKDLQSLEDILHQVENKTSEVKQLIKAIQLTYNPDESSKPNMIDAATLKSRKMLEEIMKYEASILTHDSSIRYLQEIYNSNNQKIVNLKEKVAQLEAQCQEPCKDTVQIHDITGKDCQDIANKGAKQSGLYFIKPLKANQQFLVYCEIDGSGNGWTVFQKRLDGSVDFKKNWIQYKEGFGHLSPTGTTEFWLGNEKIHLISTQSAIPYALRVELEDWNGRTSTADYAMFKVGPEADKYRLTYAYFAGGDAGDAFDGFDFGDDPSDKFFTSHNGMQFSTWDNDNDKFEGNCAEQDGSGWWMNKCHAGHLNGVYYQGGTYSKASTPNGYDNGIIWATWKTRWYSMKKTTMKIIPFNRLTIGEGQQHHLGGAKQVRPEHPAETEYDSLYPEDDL
Test: Fibrinogen ELISA assay
Type: binding
Conditions: sandwich ELISA
Experimental: Fibrinogen ELISA Assay. To ensure similar immobilization levels of recombinant human ectodomain aIIbβ3 between the ELISA plate and integrin coupled magnetic beads, the wells of a 96-well micro plate (Nunc MaxiSorp) were incubated with the same aIIbβ3 concentration per surface area as during the preparation of the magnetic beads, 6.6×10^4 μg·mL^−1·c^−2. Each well was coated with aIIbβ3 or control proteins (BSA and β3−/− platelet lysate) by incubation of 6 μg/μL protein in binding buffer (TRIS buffered saline with 0.05% TWEEN-20 and 1 mM each of MgCl2, MnCl2 and CaCl2)) at 4° C. overnight. Incubation of 3% skim milk (ED Millipore) and 2% TWEEN-20 for 1 hour at 37° C. was used for blocking. The concentration of aIIbβ3 per surface area of bead used when coating SAM coated beads is 6.6×10^4 μg·mL^−1·cm^−2, therefore the wells of 96 well plates used were coated with the same density EDC/NHS quenching achieved by increase pH to 8.6. Bead concentration for synthesis: 6×10^9 beads·mL^−1; Integrin-bead reaction concentration=250 μg·mL^−1; Integrin Used=6.6×10^4 μg·mL^−1·cm^−2; Well Surface Area (50 μL)=0.93 cm^2; Concentration/wee for ELISA=6×10^4 μg·mL^−1 (6 μL/well in 50 μL total volume); Stock [αIIbβ3]=5×10^5 μg·mL^−1.
Fibrinogen binding. […] The OPD peroxidase reaction was stopped after 1 hour with 2 M H2SO4 and the absorbance was read at 492 nm. […]

Substance: integrin: Recombinant human ectodomain αIIbβ3 immobilized on 96-well ELISA plate at the same density as on the beads
- CLOD (fibrinogen detection): 0.54 ± 0.07 µM
- Kd (integrin on plate surface, blocking step, HRP labelled detection antibody): 2.2 ± 0.4 µM

From patent US20230331811A1, “IMMOBILIZED SELF-ASSEMBLED PROTEIN MULTIMERS” (CCOA THERAPEUTICS INC., priority 2020, published 2023)
